Measured values: the supplement of paper PMC12042874
± gives the uncertainty stated by the source.

Experiment: amyloid nucleation score (Sup35N fusion, yeast selection) (log enrichment); library NNK3; higher = more nucleation; inactive = no reads after selection
Outline: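 Libraries of peptides of 20 random codons fused to Sup35N were expressed in psi-negative yeast and induced 24 hours with 100 μM copper sulfate. Selection was 7 days at 30°C on medium lacking adenine and uracil, and plasmid inserts were Illumina-sequenced before and after selection. Nucleation score is the DiMSum log enrichment of output over input reads, centred on the mode score of non-aggregating sequences, and sequences with under 100 input reads were left out.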

Substance | amyloid nucleation score
IFVLLVRANV | -0.449 ± 0.7
DSGKDKF | inactive
SSSTVYISVLVINHIDGSIR | 2.42 ± 0.051
TRMRTCSKRY | inactive
SFSDYEDMAQHLAPEAYNKC | inactive
LVESDLYVCTTVRGQVSMKG | inactive
GDHYGVEYSHPL | inactive
DGHKCCTG | inactive
GLKCGFRPSSVINSYWSSQL | inactive
VMCLRTFGASSFFI | -0.023 ± 0.55
WFTQERHSVPLLIWMGLRRQ | 2.03 ± 0.075
KMDKFPV | 0.391 ± 0.34
SEASYIIIFSGFSGFMPKLG | inactive
WDMWPGI | inactive
HVCWVWMCEVFKAAIPSVTD | inactive
SVYNSYWKVQYRVVMS | 0.506 ± 0.21
QMYKYNPNLYFFSVAVNLVV | 2.18 ± 0.073
EYKRTSMVVQFSCSAYILTF | inactive
SFSFVDLGIHYLMCNDSKIT | inactive
WGVGTPVRLWFIEANPVGHV | inactive
VYGIQRVMGRLWIMNVWVPF | inactive
RKIETLWVYIYRLFRLGEQV | inactive
NYICVK | inactive
GHVIMGLSGYGSLASLFKTG | inactive

Substance | amyloid nucleation score
RLQNPTCAAPWCCIGKGVIR | 0.538 ± 0.39
FKSASGRL | inactive
HNFLIMWKSVVVLAVAISAK | 0.627 ± 0.18
LADLLLCDLRDCRRSAVGRM | inactive
FVSLHTRLGDLHDVVCTLVF | inactive
VVSLMDTPFD | inactive
KSDEVTFMWHSHGIRMFR | 0.357 ± 0.4
TGQQE | inactive
ESMTSNYYQMIGVFCEMLVR | inactive
PNGHLLYMYFFMRDGSSDRG | inactive
NYVLRSMSGTRFRALWRVAP | inactive
PDYGMSLCHLPTWMW | inactive
AGPVPIT | 0.723 ± 0.25
IGAWHVLITGCTFQEIPR | 1.88 ± 0.064
LSCWNIRGWLRWS | inactive
HDYYFDTRDTIRVIL | inactive
SLISNCPIVWNRIWISYHFH | 0.738 ± 0.3
SEDLRETWGSSA | -0.377 ± 0.98
FKRHMTINLQRGITLIGIDM | 1.93 ± 0.062
IDTTQVLGMNS | inactive
RFKTF | inactive
SFSFVQGSVPSTSFGSLKLA | inactive
RAMCTALTSGTYRTCC | inactive
SVNSVTWLFVRMQYFLFISC | inactive

Substance | amyloid nucleation score
LLELRVVRLRTNVAVVHIYV | inactive
LYSVSAAMDTIKPLFPRGNA | inactive
LSPYRYSCYPYPTYSRYP | 0.44 ± 0.24
VIMYHMKFDNEIWVMHLLRN | inactive
YARVMSVAMSWEDQNSTKKR | 0.467 ± 0.19
PLTVI | inactive
KLILKYCIRCQNGYDSARMS | -0.291 ± 0.5
MILFKIEELHCQHVSHCG | inactive
LVQIPYTDDVRLKGMINP | inactive
WGDDGNTFYE | inactive
CRYLICVGS | inactive
AVGKM | -0.082 ± 0.88
SLSSSWFFNISSNADMPCYN | inactive
VWIIEK | 1.99 ± 0.062
FGVTVSYKWWRWSPLSYCAM | inactive
DNARCSLHFYNSCWISVWKY | inactive
VLVLS | inactive
IAVVTSNWVADLSPGNHTCM | -0.49 ± 0.96
RGFICIGTLYLLAPVFCARS | 2.85 ± 0.062
TDNAVMGSHCI | inactive
LKVCNISDWFNIACSVMSFH | 1.93 ± 0.086
NTFDTVLFRDLVYL | inactive
FEDLKTDSILYQFSRAYGDW | inactive
LVTDGMRRSEICLMVYSN | inactive

Substance | amyloid nucleation score
DITRMVNNKFIWSSVSGLAC | inactive
RFRVLTYIISYSFSFCHHVW | 0.356 ± 0.27
VVGKFSTADILSFR | inactive
SRITLPDIIMFHCMFNGTDV | 0.339 ± 0.67
FNKDINRPYKCKAH | inactive
LAASVNYILRNIDCGVRMRF | inactive
PFDHTSHNVVRKLLSSELLR | inactive
VNATDRSVSFLHKGPALDSN | inactive
SKFRFGRVNLNVT | inactive
LNLETLISWLSVCPRGRTEE | inactive
WYVFPCRDLVDMCCSGRCAV | inactive
LSTCFTGAFRVSNREKSNVS | 0.059 ± 0.43
LFGDMIMVSSCWSKRNCSVA | inactive
KDMIYSHDKLKFQKKNKHMQ | inactive
HLLRCYMFIVDEVCWSVVAR | inactive
FGLGQIRFSHIICLNLILSL | 2.29 ± 0.056
GCSLTWAVAEALTILVNAYT | inactive
QKLSCPMFLMAIIVSKITKM | inactive
RLRRLCYSSGELDALGLCVW | 0.261 ± 0.42
LLLASVRVRFRHWPTYLRYF | inactive
FQLSPTDRVYRDRSAYDVEG | inactive
MNMGYFRFNL | inactive
NMMPREPDTFMGYSGRRLCV | -0.284 ± 1.1
CVEVWLPYFFLSMS | inactive

Substance | amyloid nucleation score
DNAVVEEYIIEVAKSFWTDG | inactive
NVVFSFMVTRCDRLWS | 0.661 ± 0.27
YLLDRLRVSDGYPLQSPWTT | inactive
FVGSLLGKSKFLGLHCCKEV | -0.08 ± 0.66
NYYRC | inactive
VGNFTWICKI | 2.48 ± 0.056
SNSSHRRYYGHVRRNL | inactive
SAHEFIVDCRYESIRMFVII | inactive
TTIYSEVLFRDHCVWQYPDR | inactive
FFNIMCYRHWLKVKLYYIVK | 1.9 ± 0.06
TGVRMWFVG | inactive
FISSSCSFVRCILLVNYKIR | -0.66 ± 1.9
FVSLSRNLNCTPRL | inactive
APSNGRE | inactive
CYWTYVRLSSVFRDHIVALT | inactive
HDCGYQITYGDNRIVYMCFV | inactive
VDVQVINLAFETFECCAFIK | 0.82 ± 0.16
IYVRLMSFH | 0.452 ± 0.15
YVSGKSSYIIF | 0.116 ± 0.71
RVNILFNFFCHTVW | 1.2 ± 0.13
CRWGNVIYFFTR | 1.45 ± 0.12
LAYVLKDYFNCYGVIVVISL | inactive
VIVKKLY | inactive
WTDVRGMVSSINGRSTSRVP | inactive

Substance | amyloid nucleation score
LYSSNQLFDGGMSFWNDNII | inactive
SVIMGLTGDPGVALYVVTIM | inactive
NWGMTNAFFISGKRSGMSSM | 0.42 ± 0.38
GRSMR | inactive
TGFNASCCLLGSRCGAEKIL | 0.604 ± 0.18
LRWCGSVFLFGGCRGTVVSW | inactive
SRVKDYCSFGLDFKCVCVFL | 2.06 ± 0.094
IMEFYERMLFL | inactive
VCKLVTYSYLLVREPRSADS | inactive
AGFAMYFGFVGYNFSFPWG | 1.17 ± 0.19
CFDFSCVFLKEMQYGGETGS | 1.07 ± 0.12
GTRMNGSGFVKRAL | inactive
TFFWLLCN | inactive
KGQDCNVLNSNYESSIVGDL | inactive
VRMMFSWPK | 0.902 ± 0.24
PLTLIQDQQGRVSFSKA | inactive
CVNLRNIRFSTLRGMGGWI | inactive
SDYTYFYM | inactive
RLPCPCNSVACVRTWISRCS | inactive
GSVQAFCISKP | inactive
DGCVEELWRGRVLMKMFTHS | inactive
TYCYTVVTASMDAFEG | inactive
KTTTY | -0.2 ± 0.54
FMYNLVVSGSVHSKVDRYSC | 0.629 ± 0.16

Substance | amyloid nucleation score
YGWFVDFGEYVTESNVGLY | inactive
IKYKDKGIWFLVSCGHFRLR | inactive
SLIGSRGPLNSGEVMMMLFK | inactive
EMVLGWSARFCDK | 1.65 ± 0.088
CLALYRGRMLSGKVRRCTTS | inactive
KKRSMD | inactive
TPSGCAFNHCVMGTGDFQYM | 2.38 ± 0.073
VSIDSSFLHRSLLS | inactive
YTLAC | inactive
KPTIDIKCFCSWVYLKVLRG | inactive
IRGFVSIW | inactive
LIRPDCEDTRFCIRSWDCQG | inactive
TNRWSIFTVVLSTMNVASFV | 0.974 ± 0.18
YYVFVYLYSCVCFTGTGKSV | inactive
HMFSGVG | inactive
HGLFTFVGCHCLCRN | 0.939 ± 0.16
VSGWFDWDFLDDNGQYWLHV | inactive
GLRTFIG | inactive
